Source: the supplement of paper PMC7877785
± gives the uncertainty stated by the source.

Assay: self-splicing fitness, log relative to wild type (ln ratio); higher = more splicing; Tetrahymena group I intron in knt gene, E. coli kanamycin selection, DiMSum; sequences stand for … in CUCUCU…GGAGGGAAAAGUUAUCAGGCAUGCACCUGGUAGCUAGUCUUUAAACCAAUAGAUUGCAUCGGUUUAAAAGGCAAGACCGUCAAAUUGCGGGAAAGGGGUCAACAGCCGUUCAGUACCAAGUCUCAGGGGAAACUUUGAGAUGGCCUUGCAAAGGGUAUGGUAAUAAGCUGACGGACAUGGUCCUAACCACGCAGCCAAGUCCUAAGUCAACAGAUCUUCUGUUGAUAUGGAUGCAGUUCACAGACUAAAUGUCGGUCGGGGAAGAUGUAUUCUUCUCAUAAGAUAUAGUCGGACCUCUCCUUAAUGGGAGCUAGCGGAUGAAGUGAUGCAACACUGGAGCCGCUGGGAACUAAUUUGUAUGCGAAAGUAUAUUGAUUAGUUUUGGAGUACUCGUGGUCG
Summary of the method: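 Six replicate transformations of E. coli BL21(DE3) with a pET-22b(+) library were grown overnight at 37°C or 30°C. The library randomised all eight P1ex-region intron nucleotides, the intron lying in the knt kanamycin-resistance gene, and plates were LB agar with or without 25 μg/mL kanamycin plus 100 μg/mL carbenicillin, 50 μM IPTG and 0.2% rhamnose. Pooled colonies were amplicon-sequenced on an Illumina HiSeq 2500, and fitness is the DiMSum error-weighted combination of wild-type-normalised replicate fold changes, kanamycin versus none.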

Sequence	self-splicing fitness (ln) (30 °C)	self-splicing fitness (ln) (37 °C)
GAUAAGCAAUAUUACGAAUG	-1.28 ± 0.14	-0.794 ± 0.15
CAUGAGCAAUAUUACGAUUA	-3.08 ± 0.24	-2.02 ± 0.21
CCCAAGCAAUAUUACGAGUU	-3.89 ± 0.14	-2.68 ± 0.14
UGAAAGCAAUAUUACGCCGG	-0.876 ± 0.11	-0.346 ± 0.15
ACAAAGCAAUAUUACGGGAA	-2.44 ± 0.18	-2.48 ± 0.17
AGGCAGCAAUAUUACGAUGU	-2.41 ± 0.094	-0.487 ± 0.1
UCGUAGCAAUAUUACGGGAA	-1.71 ± 0.2	-1.06 ± 0.16
AACCAGCAAUAUUACGUCAG	-2.3 ± 0.079	-1.49 ± 0.086
AUGUAGCAAUAUUACGGUGC	-2.55 ± 0.3	–
AUAUAGCAAUAUUACGCAUG	-1.66 ± 0.12	-0.477 ± 0.14
UUAGAGCAAUAUUACGAGUC	–	-2.53 ± 0.49
UGAUAGCAAUAUUACGAAGC	-3.24 ± 0.32	–
CGGUAGCAAUAUUACGGGUA	-2.65 ± 0.21	-3.01 ± 0.28
GUGAAGCAAUAUUACGUGAU	-1.97 ± 0.12	-1.03 ± 0.14
ACUCAGCAAUAUUACGCACC	-1.19 ± 0.094	0.495 ± 0.11
GGCCAGCAAUAUUACGACUU	-0.142 ± 0.084	0.435 ± 0.11
GUUUAGCAAUAUUACGACUG	-4.08 ± 0.39	-0.416 ± 0.23
CGAGAGCAAUAUUACGCCGU	-2.28 ± 0.49	–
ACUGAGCAAUAUUACGCUUA	-3.12 ± 0.38	-1.88 ± 0.2
UGCAAGCAAUAUUACGUCAA	-2.14 ± 0.098	-0.795 ± 0.073
CUGAAGCAAUAUUACGCCUC	-3.61 ± 0.44	–
UGAUAGCAAUAUUACGGGGC	-3.5 ± 0.29	–
UUACAGCAAUAUUACGUGAA	-1.16 ± 0.054	-0.338 ± 0.066

Sequence	self-splicing fitness (ln) (30 °C)	self-splicing fitness (ln) (37 °C)
UUAAAGCAAUAUUACGGUAC	-2.58 ± 0.22	-1.06 ± 0.22
GACAAGCAAUAUUACGUGUC	-4.44 ± 0.28	-3.22 ± 0.37
GCAUAGCAAUAUUACGAUUU	-1.27 ± 0.092	0.225 ± 0.14
CCAUAGCAAUAUUACGCAGC	–	-3.34 ± 0.42
CCAGAGCAAUAUUACGCCGA	-2.35 ± 0.28	-2.65 ± 0.44
GCACAGCAAUAUUACGUACG	-0.945 ± 0.092	-0.0901 ± 0.098
CUGAAGCAAUAUUACGGAAA	-3.46 ± 0.26	-1.43 ± 0.31
AUUCAGCAAUAUUACGGCCC	-0.851 ± 0.16	-0.422 ± 0.21
UUCCAGCAAUAUUACGUCGG	-3.28 ± 0.23	-3.13 ± 0.4
AGCGAGCAAUAUUACGGCUU	-2.59 ± 0.12	-2.02 ± 0.21
GCACAGCAAUAUUACGUAUG	-2.21 ± 0.073	-1.52 ± 0.079
UCACAGCAAUAUUACGAUGC	-3.33 ± 0.17	-1.26 ± 0.13
CGGAAGCAAUAUUACGUGGA	-2.79 ± 0.14	-2.93 ± 0.21
GGACAGCAAUAUUACGAGAA	-2.45 ± 0.36	-1.54 ± 0.25
GUUUAGCAAUAUUACGGACG	-1.76 ± 0.15	-0.693 ± 0.15
GACAAGCAAUAUUACGACAC	-0.384 ± 0.071	0.0329 ± 0.11
UUCGAGCAAUAUUACGCCUC	-3.3 ± 0.4	-1.3 ± 0.4
CCCAAGCAAUAUUACGGCCG	-2.73 ± 0.19	-2.43 ± 0.21
AGCCAGCAAUAUUACGACUG	-2.72 ± 0.091	-1.14 ± 0.095
GAGGAGCAAUAUUACGACCG	–	-0.621 ± 0.31
UGGAAGCAAUAUUACGUGCG	-0.442 ± 0.054	0.0701 ± 0.075
GAUGAGCAAUAUUACGCCCA	-1.17 ± 0.23	0.487 ± 0.28
